What was measured:
[1] = target: T1, I-CreI wild type (Chlamydomonas reinhardtii, UniProt P05725 SEQ:1-163); assay: FP; 10 mM Tris pH8, 400 mM NaCl, 10 mM CaCl2, 10 mM DTT, 25 C; conditions: tags: C-terminal 6xHis, E. coli BL21; chain copies: 2 (inferred); label: 5' fluorescein on forward (a) strand
T1 sequence: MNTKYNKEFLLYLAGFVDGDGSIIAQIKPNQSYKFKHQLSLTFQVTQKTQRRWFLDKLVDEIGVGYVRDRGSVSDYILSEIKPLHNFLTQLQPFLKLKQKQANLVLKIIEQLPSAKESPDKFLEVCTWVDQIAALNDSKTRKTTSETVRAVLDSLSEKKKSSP
Method: (§1) FIG. 4: Spectrofluorimetric titration of fluorescein-labeled C1234 by I-Cre I wild type. 25 nM of C1234 duplex was incubated with increasing concentrations of I-Cre I [from 0 to 400 nM, only 0-80 nM shown] in binding buffer (10 mM Tris-HCl, 400 mM NaCl, 10 mM CaCl₂, 10 mM DTT, pH8) at 25° C. After 30 minutes incubation, the fluorescence anisotropy of the mixture was recorded with a Pherastar Plus (BMG Labtech) operating in fluorescence polarization end point mode with excitation and emission wavelengths set to 495 and 520 nm respectively. Normalized fluorescence anisotropy is plotted as a function of active I-Cre I concentration. Apparent dissociation constant were determined by fitting raw data by an hyperbolic function (Aₓ=(A_{∞}*[Meganuclease])/(Kd+[Meganuclease]) with Aₓ, the fluorescence anisotropy value obtained at a given meganuclease concentration, A_{∞}, the fluorescence anisotropy value obtained at saturating concentration of meganuclease and Kd the dissociation constant of the equilibrium studied).
(§2) Fluorescein labeled C1234 oligonucleotides were synthesized and HPLC-purified by Eurogentec. […] C 1234 duplex and fluorescein final concentrations were assessed by spectrophotometry using their respective extinction coefficients ε₂₆₀ₙₘ=62900 M⁻¹ cm⁻¹ and ε₄₉₅ₙₘ=83000 M⁻¹ cm⁻¹. […]

[2] = target: T1, I-CreI wild type; assay: FP; 400 mM NaCl, 10 mM CaCl2, pH8, 25 C; conditions: tags: C-terminal 6xHis, E. coli BL21; chain copies: 2 (inferred); label: 5' fluorescein on forward strand
Method: as §1
Fluorescein labeled C1234 oligonucleotides were synthesized and HPLC-purified by Eurogentec. To prepare C 1234 duplex corresponding to I-Cre I double strand DNA wild type target, C1234 forward (SEQ ID NO: 31, “a” strand below) labeled with Fluorescein on its 5′ end was mixed with 1 equivalent of C1234_reverse (SEQ ID NO: 32, “b” strand below) in 100 mM Tris-HCl, 50 mM EDTA, 150 mM NaCl, pH8. The mixture was heated to 95° C. for 2 min and then cooled down to 25° C. over 1 hour. C1234 duplex was eventually purified by anion exchange chromatography using a miniQ PE column (GE healthcare) pre-equilibrated with buffer A (20 mM Tris-HCl, pH7.4). Single stranded oligonucleotides and other contaminants were first discarded using a 0 to 360 mM NaCl step gradient and elution of pure C1234 duplex was performed with a 360-1000 mM NaCl linear gradient (5 column volumes). C 1234 duplex and fluorescein final concentrations were assessed by spectrophotometry using their respective extinction coefficients ε₂₆₀ₙₘ=62900 M⁻¹ cm⁻¹ and ε₄₉₅ₙₘ=83000 M⁻¹ cm⁻¹. […]

[3] = target: T2, ADCY9 meganuclease (I-CreI-derived) (Artificial Sequence); assay: FP; 10 mM CaCl2, 150 mM NaCl, pH8, 25 C
T2 chain: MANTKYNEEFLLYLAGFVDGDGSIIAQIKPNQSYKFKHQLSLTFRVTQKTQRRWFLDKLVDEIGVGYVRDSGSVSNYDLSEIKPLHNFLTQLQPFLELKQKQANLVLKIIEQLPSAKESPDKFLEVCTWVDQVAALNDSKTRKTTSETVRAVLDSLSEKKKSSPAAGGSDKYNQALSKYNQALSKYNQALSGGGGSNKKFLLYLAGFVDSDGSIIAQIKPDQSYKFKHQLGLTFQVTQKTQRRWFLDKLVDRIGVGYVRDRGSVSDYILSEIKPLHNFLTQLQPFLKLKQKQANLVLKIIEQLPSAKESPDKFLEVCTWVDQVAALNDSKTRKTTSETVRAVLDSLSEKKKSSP

[4] = target: T2, ADCY9 meganuclease (I-CreI-derived); assay: FP; apparent Kd, sigmoidal binding; 10 mM CaCl2, 150 mM NaCl, pH8, 25 C
[5] = target: T3, I-CreI D75N (UniProt P05725 SEQ:1-167); assay: cleavage_in_vitro; relative to unmethylated C1221; conditions: tags: C-terminal 6xHis, E. coli BL21; chain copies: 2 (inferred)
T3 chain: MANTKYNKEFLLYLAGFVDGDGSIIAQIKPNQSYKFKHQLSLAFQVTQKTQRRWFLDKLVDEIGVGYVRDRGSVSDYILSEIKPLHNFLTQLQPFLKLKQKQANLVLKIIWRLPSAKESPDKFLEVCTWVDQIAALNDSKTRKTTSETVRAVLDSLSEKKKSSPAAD
Method: FIG. 3: In vitro cleavage of unmethylated or methylated C1221 by I-CreI D75N. 50 nM C1221 containing either 0, 1, 2 or 3 methylated CG was incubated with increasing concentrations of I-CreI D75N (0 to 2 μM) in reaction buffer (10 mM Tris-HCl, 150 mM NaCl, 10 mM MgCl₂, pH8) for an hour at 37° C. The reaction was stopped and cleaved and uncleaved C1221 (top and bottom panel respectively) were quantify and plotted as function of I-CreI D75N concentration.
To investigate the influence of C1221 methylation on the nuclease activity of I-CreI, an in vitro cleavage assay with either unmethylated or fully methylated C1221 duplex (SEQ ID NOs: 4-5 and 12-13 respectively) was performed. A constant amount of C1221 duplex (50 nM) was incubated with increasing concentration of I-CreI (0 to 2 μM) in a total volume of 25 μL of reaction buffer (10 mM Tris-HCl, 150 mM NaCl, 10 mM MgCl₂, pH8). Cleavage reaction was allowed to proceed 1 hour at 37° C. and then stopped by addition of 5 μL of 6× stop buffer (45% glycerol, 95 mM EDTA, 1.5% (w/v) SDS, 1.5 mg/mL proteinase K and 0.048% (w/v) bromophenol blue) followed by an hour incubation at 37° C. Cleaved and uncleaved DNA products were separated by PAGE using a TGX Any kD precast gel (Bio-Rad), stained with SYBR Green and then quantified using Quantity One software (Bio-Rad).
To investigate the influence of C1221 methylation on the nuclease activity of I-CreI D75N, in vitro cleavage assay with C1221 duplex containing either 0, 1, 2 or 3 methylated CG (SEQ ID NOs: 4-5, 6-7, 8-9, 10-11 respectively) was performed, according to the procedure described for I-CreI wild type.

[6] = target: T1, I-CreI wild type; assay: FP; 400 mM NaCl, 10 mM CaCl2, pH8, 25 C; no saturation; conditions: tags: C-terminal 6xHis, E. coli BL21; chain copies: 2 (inferred); label: 5' fluorescein on forward strand
Method: as §1, §2

[7] = target: T4, XPC4 meganuclease (I-CreI-derived) (Artificial Sequence); assay: FP; 10 mM CaCl2, 150 mM NaCl, pH8, 25 C
T4 chain: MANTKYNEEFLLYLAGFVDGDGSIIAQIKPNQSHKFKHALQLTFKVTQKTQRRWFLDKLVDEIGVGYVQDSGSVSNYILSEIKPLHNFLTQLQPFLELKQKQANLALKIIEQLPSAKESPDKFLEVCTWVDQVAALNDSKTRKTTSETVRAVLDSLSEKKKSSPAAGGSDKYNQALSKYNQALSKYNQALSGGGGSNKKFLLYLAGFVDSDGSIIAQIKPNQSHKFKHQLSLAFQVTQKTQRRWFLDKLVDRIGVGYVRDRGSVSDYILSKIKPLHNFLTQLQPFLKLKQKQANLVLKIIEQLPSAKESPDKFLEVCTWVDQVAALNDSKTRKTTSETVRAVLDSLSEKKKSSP

[8] = target: T4, XPC4 meganuclease (I-CreI-derived); assay: FP; 10 mM CaCl2, 150 mM NaCl, pH8, 25 C; not significantly different from unmethylated

B1: C1234 (dsDNA)
DNA 1: TCAAAACGTCGTGAGACAGTTTGG
DNA 2: CCAAACTGTCTCACGACGTTTTGA
- Kd [1]: ≤ 2.5 nM

B2: C1234_Me-6a/-3a (dsDNA)
DNA 1: TCAAAACGTCGTGAGACAGTTTGG
DNA 2: CCAAACTGTCTCACGACGTTTTGA
modifications: 5mC at -6a, -3a
- Kd [2]: ≤ 2.5 nM

B3: ADCY9.1 (dsDNA)
DNA 1: CCCAGATGTCGTACAGCAGCTTGG
DNA 2: CCAAGCTGCTGTACGACATCTGGG
- Kd [3]: 190 nM

B4: ADCY9.1_Me -3a/-2b (dsDNA)
DNA 1: CCCAGATGTCGTACAGCAGCTTGG
DNA 2: CCAAGCTGCTGTACGACATCTGGG
modifications: 5mC at -3a, -2b
- Kd [4]: 431 nM

B5: C1221_1Me (dsDNA)
DNA 1: GGGGTCAAAACGTCGTACGACGTTTTGAGGGG
DNA 2: CCCCTCAAAACGTCGTACGACGTTTTGACCCC
modifications: 5mC at 1 CpG on both strands
- activity [5]: ~3 fold increase of C50

B6: C1221_2Me (dsDNA)
DNA 1: B5 DNA 1
DNA 2: B5 DNA 2
modifications: 5mC at 2 CpG on both strands
- activity [5]: > 10 fold increase of C50

B7: C1234_Me-5b (dsDNA)
DNA 1: TCAAAACGTCGTGAGACAGTTTGG
DNA 2: CCAAACTGTCTCACGACGTTTTGA
modifications: 5mC at -5b
- Kd [2]: 24 nM

B8: C1221_3Me (dsDNA)
DNA 1: B5 DNA 1
DNA 2: B5 DNA 2
modifications: 5mC at 3 CpG on both strands
- activity [5]: > 10 fold increase of C50

B9: C1234_Me-2b (dsDNA)
DNA 1: TCAAAACGTCGTGAGACAGTTTGG
DNA 2: CCAAACTGTCTCACGACGTTTTGA
modifications: 5mC at -2b
- Kd [2]: 40.8 nM

B10: C1234_Me full (dsDNA)
DNA 1: TCAAAACGTCGTGAGACAGTTTGG
DNA 2: CCAAACTGTCTCACGACGTTTTGA
modifications: 5mC at -6a, -3a, -5b, -2b
- Kd [6]: > 1000 nM

B11: C1234_Me-5b/-2b (dsDNA)
DNA 1: TCAAAACGTCGTGAGACAGTTTGG
DNA 2: CCAAACTGTCTCACGACGTTTTGA
modifications: 5mC at -5b, -2b
- Kd [6]: > 1000 nM

B12: XPC4.1 (dsDNA)
DNA 1: TCGAGATGTCACACAGAGGTACGA
DNA 2: TCGTACCTCTGTGTGACATCTCGA
- Kd [7]: 108 nM

B13: XPC4.1_Me -11a/-10b & +10a/+11b (dsDNA)
DNA 1: TCGAGATGTCACACAGAGGTACGA
DNA 2: TCGTACCTCTGTGTGACATCTCGA
modifications: 5mC at -11a, -10b, +10a, +11b
- Kd [8]: 127 nM
